Test results taken from paper PMC3218054, “Characterisation of the Interaction of the C-Terminus of the Dopamine D2 Receptor with Neuronal Calcium Sensor-1” (PLoS ONE, 2011).

Molecular target: T1, Neuronal calcium sensor-1 (NCS-1), Rattus norvegicus, wild type (Rattus norvegicus, UniProt P62168 1-190)
T1 construct: NCS-1, Rattus norvegicus; cDNA GenBank L27421; sub-cloned into pET-M11; 15N or 15N,13C labelled for NMR; Monomeric by SEC-MALS; also called wild type NCS-1; source: E. coli BL21 (DE3), purified (Phenyl FF hydrophobic column, TEV cleavage, Superdex 75); not shown: His tag, N-terminal, cleaved
T1 sequence (P62168 whole entry): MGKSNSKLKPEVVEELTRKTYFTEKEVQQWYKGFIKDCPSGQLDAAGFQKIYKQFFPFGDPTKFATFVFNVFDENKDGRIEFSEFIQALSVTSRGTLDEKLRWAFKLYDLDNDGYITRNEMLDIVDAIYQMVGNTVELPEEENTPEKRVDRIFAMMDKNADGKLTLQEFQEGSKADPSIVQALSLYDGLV
Experiment: other fluorescence titration; intrinsic tryptophan fluorescence of 1 µM NCS-1 (excitation 280 nm, emission 290-410 nm), peptide added stepwise; 20 mM HEPES, 139 mM NaCl, 2 mM ATP, 5 mM EGTA, 5 mM nitrilotriacetic acid, pH 7.4, 1 µM free Ca2+; room temperature; logistic fit
Conditions: both partners purified

B1: D2 peptide, residues 428-443 of the human dopamine D2 receptor (peptide)
peptide: TFNIEFRKAFLKILHC
notes: dopamine D2 receptor, human, residues 428-443, cytoplasmic C-terminal tail; Dissolved first in a minimal amount of DMSO; also called D2 (428-443); dopamine D2 receptor C-terminus; source: synthetic peptide, bought: Peptide Protein Research Ltd
EC50: 14.3 µM | stoichiometry N: 2 peptide per NCS-1
